Among the data in patent US20240190962A1 are Percent T-cell proliferation (PBMC proliferation assay) values, retold here.

The target in the assay is human IL-2 receptor (IL-2Rα, IL-2Rβ, IL-2Rγ) (human) (UniProt P01589). Nature of the assay: cell-based or functional assay.
human IL-2 receptor (IL-2Rα, IL-2Rβ, IL-2Rγ) (human), sequence (P01589 22-272, chain 1 of 3): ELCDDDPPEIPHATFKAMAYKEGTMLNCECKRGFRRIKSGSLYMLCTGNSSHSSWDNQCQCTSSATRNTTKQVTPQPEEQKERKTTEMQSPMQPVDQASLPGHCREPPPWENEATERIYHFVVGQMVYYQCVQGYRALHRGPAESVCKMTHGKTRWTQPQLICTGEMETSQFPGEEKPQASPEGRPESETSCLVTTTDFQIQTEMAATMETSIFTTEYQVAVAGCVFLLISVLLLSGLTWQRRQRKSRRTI
human IL-2 receptor (IL-2Rα, IL-2Rβ, IL-2Rγ) (human), sequence (P14784 27-551, chain 2 of 3, further chain): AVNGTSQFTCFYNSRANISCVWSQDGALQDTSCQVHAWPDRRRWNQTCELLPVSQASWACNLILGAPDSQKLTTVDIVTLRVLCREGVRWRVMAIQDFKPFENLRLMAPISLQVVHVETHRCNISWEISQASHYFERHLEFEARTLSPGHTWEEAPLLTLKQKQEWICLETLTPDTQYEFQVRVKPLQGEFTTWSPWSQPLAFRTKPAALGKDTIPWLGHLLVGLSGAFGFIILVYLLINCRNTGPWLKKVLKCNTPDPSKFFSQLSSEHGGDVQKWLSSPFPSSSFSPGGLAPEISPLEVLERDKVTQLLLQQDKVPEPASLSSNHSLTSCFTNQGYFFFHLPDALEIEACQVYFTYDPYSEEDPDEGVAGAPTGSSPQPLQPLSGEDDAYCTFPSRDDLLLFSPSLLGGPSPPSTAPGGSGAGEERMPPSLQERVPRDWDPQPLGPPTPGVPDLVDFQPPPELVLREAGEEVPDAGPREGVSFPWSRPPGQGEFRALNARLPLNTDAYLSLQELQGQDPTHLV
human IL-2 receptor (IL-2Rα, IL-2Rβ, IL-2Rγ) (human), sequence (P31785 23-369, chain 3 of 3, further chain): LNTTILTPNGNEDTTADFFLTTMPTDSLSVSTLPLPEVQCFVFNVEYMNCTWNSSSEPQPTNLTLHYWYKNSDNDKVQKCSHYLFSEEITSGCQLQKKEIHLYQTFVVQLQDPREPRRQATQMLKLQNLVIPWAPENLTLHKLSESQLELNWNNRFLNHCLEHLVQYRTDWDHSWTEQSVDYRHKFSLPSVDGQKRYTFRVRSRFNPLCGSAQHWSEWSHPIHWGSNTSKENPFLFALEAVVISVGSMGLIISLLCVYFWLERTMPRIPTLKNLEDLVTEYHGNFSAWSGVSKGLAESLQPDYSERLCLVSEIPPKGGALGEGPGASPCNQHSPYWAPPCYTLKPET

B1: Fab-Fc-IL-2 mutant-CD3 Ab (protein, part only; not given: constant regions and IL-2 junction, not shown: a dimerising Fc or GST)
light: EIVMTQSPGTLSLSPGESATLSCSASLSVSFMHWFQQKPGHAPRLLIYRTSNLASGVPDRFSGSGSGTDFTLTISRLEPEDFAVYYCQQRSSDPPTFGQGTRLEIKRTVAAPSVFIFPPSDEQLKSGTASVVCLLNNFYPREAKVQWKVDNALQSGNSQESVTEQDSKDSTYSLSSTLTLSKADYEKHKVYACEVTHQGLSSPVTKSFNRGEC
heavy, part 1: EVQLVESGGGLVQPGRSLRLSCTASGFTFSYFWMNWVRQAPGKGLEWVGEIRLRSDNYATHYAESVKGRFTISRDDSKSIAYLQMNSLKTEDTALYYCTRDWEFTYWGQGTTVTVSSAS
heavy, part 2: EVQLVESGGGLVQPGRSLRLSCTASGFTFSYFWMNWVRQAPGKGLEWVGEIRLRSDNYATHYAESVKGRFTISRDDSKSIAYLQMNSLKTEDTALYYCTRDWEFTYWGQGTTVTVSSASAPTSSSTKKTQLQLEHLLLDLQMILNGINNYKNPKLTDMLTFEFYMPKKATELKHLQCLERELKPLEEVLNLAQSKNFHLRPRDLISNINVIVLELKGSETTFMCEYADETATIVEFLNRWITFCQSIISTLT
B1 displayed a Percent T-cell proliferation (PBMC proliferation assay) of 52%.
